Assay [1] has as its target T1, human PD-1 extracellular region / murine CD28 chimera, mutant L16R, on HEK-293T cells (human; mouse, UniProt Q15116 25-170; P31041 151-218, L16R).
T1 construct: extracellular domain;domain: transmembrane and intracellular regions; Single-residue 'drastic' mutant of m4
As to the kind of experiment: flow cytometry on transfected HEK-293T cells. The protocol:
(§1) Constructs encoding the human extracellular region of PD-1 with the transmembrane and intracellular regions of murine CD28 were cloned into the bi-cistronic mammalian expression vector pGFP2-n2 from BioSignal Packard Ltd, which also encodes GFP. Mutant constructs varying by one amino acid were prepared using the “drastic” mutagenesis approach (Davis et al. Proc Natl Acad Sci USA. 95, 5490-4 (1998)). Plasmids (2 μg/well) were transfected into HEK-293T cells in 6 well plates using Genejuice transfection reagent (Novagen; 6 μl/well). Mock and no-transfection controls were included with each experiment. Cells were harvested at 18-24 hours and stained with anti-PD1 antibodies or isotype controls at 10 μg/ml in PBS-azide for 1 h at 4° C. Cells were washed with PBS-Azide, pelleted at 1500 rpm/5 min and primary antibodies were labelled with Alexa647-conjugated donkey anti-mouse IgG (5 μg/ml) in PBS-Azide for 30 min at 4° C. Cells were washed as above and resuspended in 200 μl PBS-Azide before being analysed at the flow cytometer. Propidium iodide (5 μg/ml) was added immediately prior to analysis to identify dead cells. GFP-positive (transfected) viable cells were gated and analysed for binding of anti-PD1 antibodies. Mutants were defined as ‘knock-out’ (reducing the percentage of cells bound by the anti-PD1 antibody) or ‘knock-down’ (reducing the intensity of antibody staining relative to other PD-1 antibodies).
(§2) Following transfection, cells analysed at the flow cytometer were 85-90% viable by propidium iodide exclusion. Transfection efficiencies ranged from 15-50% (GFP⁺). Isotype controls were negative on all transfectants. […] V18R partially eliminates Clone 19 binding.

The target of assay [2] is T2, human PD-1 extracellular region / murine CD28 chimera, mutant V18R, on HEK-293T cells (human; mouse, UniProt Q15116 25-170; P31041 151-218, V18R).
T2 construct: extracellular domain;domain: transmembrane and intracellular regions; Single-residue 'drastic' mutant of m4
T2 sequence (Q15116 other isoform, or with tags, fused parts or gaps V18R | V18R V18R): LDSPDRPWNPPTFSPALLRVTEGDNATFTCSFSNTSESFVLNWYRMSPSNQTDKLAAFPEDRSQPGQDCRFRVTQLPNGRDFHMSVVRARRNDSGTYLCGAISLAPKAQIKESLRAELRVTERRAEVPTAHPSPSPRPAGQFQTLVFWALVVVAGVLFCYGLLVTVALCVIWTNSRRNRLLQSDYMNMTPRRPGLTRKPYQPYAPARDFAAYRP
As to the kind of experiment: flow cytometry on transfected HEK-293T cells. The protocol: as §1, §2

The target of assay [3] is T3, human PD-1 extracellular region / murine CD28 chimera, mutant R118D, on HEK-293T cells (human; mouse, UniProt Q15116 25-170; P31041 151-218, R118D).
T3 construct: extracellular domain;domain: transmembrane and intracellular regions; Single-residue 'drastic' mutant of m4
T3 sequence (Q15116 other isoform, or with tags, fused parts or gaps R118D | R118D R118D): as the sequence (Q15116 other isoform, or with tags, fused parts or gaps V18R | V18R V18R) above, with R19V, R119D counted along it
The assay can be described thus: flow cytometry on transfected HEK-293T cells. The protocol:
as §1, §2

Assay [4] has as its target T4, Monomeric soluble human PD-1 (human, UniProt Q15116 25-170, limits assumed).
T4 construct: also called soluble PD-1
The assay can be described thus: SPR, antibody captured by rabbit anti-mouse Fc, soluble PD-1 injected. The protocol: FIG. 12: Dissociation rates for Clone 2, 10 and 19 antibodies determined by surface plasmon resonance-based analysis. The three antibodies and a negative control (OX-7) were bound indirectly to the biosensor surface, i.e. via a covalently coupled rabbit anti-mouse Fc antibody. Monomeric soluble human PD-1 was then injected to saturating levels over the immobilized antibodies in the buffer 10 mM Hepes, 150 mM NaCl pH 7.4. Following injection of the soluble PD-1, the buffer only was injected, allowing dissociation of the bound soluble PD-1 from each of the antibodies simultaneously. Dissociation rates were fitted using Origin v.5.0 software (MicroCal Software Inc, Northampton, Mass.) after subtraction of the dissociation rate for OX-7 dissociating from the anti-mouse Fc antibody.

T1 sequence (Q15116 other isoform, or with tags, fused parts or gaps L16R | L16R L16R): as the sequence (Q15116 other isoform, or with tags, fused parts or gaps V18R | V18R V18R) above, with L17R, R19V counted along it
T4 sequence (Q15116 25-170 limits assumed): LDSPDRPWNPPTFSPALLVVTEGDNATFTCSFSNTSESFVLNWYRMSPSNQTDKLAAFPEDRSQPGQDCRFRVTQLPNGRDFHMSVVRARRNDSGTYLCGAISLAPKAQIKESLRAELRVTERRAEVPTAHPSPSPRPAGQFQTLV

B1: Clone 19 anti-PD-1 antibody (antibody, IgG1, V domains shown)
VH: QVQLQQSGAELVKPGASVKMSCKAFGYTFTTYPIEWMKQNHGKSLEWIGNFHPYNDDTKYNEKFKGKAKLTVEKSSTTVYLELSRLTSDDSAVYYCARENYGSHGGFVYWGQGTLVTV
VL: ENVLTQSPAIMSASPGEKVTMTCRASSSVISSYLHWYQQKSGASPKLWIYSTSNLASGVPDRFSGSGSGTSYSLTISSVEAEDAATYYCQQYNGYPLTFGAGTKLEIK
notes: the printed VH ends at ...GTLVTV; Constant regions are named only in an embodiment (GenBank D78344, V00807); also called monoclonal antibody produced by clone 19; hybridoma 08090901
B1: the binding result is reported as “no binding (tested: 10 µg/ml)” in assay [1], “binds” in assay [2] and “no binding (tested: 10 µg/ml)” in assay [3].

B2: Clone 2 anti-PD-1 antibody (antibody, V domains shown)
VH: QVQLQQPGAELVKPGASVKLSCKASGYTFTTYYLYWVRQRPGQGLEWIGGINPSNGGTNFNEKFKSKATLTVDKSSSTAYMQLNSLTSEDSAVYYCTRRDYRYDRGFDYWGQGTSVTV
VL: DIVLTQSPASLAVSLGQRATISCRASKSVSTSGFNYIHWYQQKPGQPPKLLIYLASNLESGVPARFSGSGSGTDFTLNIHPVEDEDAATYYCQHSRELPLTFGAGTKLEIK
notes: The printed VH ends at ...GTSVT; also called hybridoma 08090903
Turning to B2, in assay [4], the binding result was “binds”.

B3: Clone 10 anti-PD-1 antibody (antibody, IgG1, V domains shown)
VH: DVQLQESGPGLVKPSQSLSLTCTVTGYSITSDYAWNWIRQFPGNKLEWMGYINYSGSTSYNPSLKSRISITRDTSKNQFFLQLNSVTTEDTATYYCARWIGSSAWYFDVWGAGTTVTV
VL: DVLMTQTPLSLPVSLGDQASISCRSGQNIVHSNGNTYLEWYLQKPGQSPKLLIYKVSNRFFGVPDRISGSGSGTDFTLKISRVEAEDLGVYFCFQGSHVPFTFGSGTKLEIK
notes: the printed VH ends at ...GTTVTV; also called hybridoma 08090902
Regarding B3, the binding result in assay [1], in assay [2] and in assay [3] was “binds” throughout.

Values taken from patent US20110171220A1 (ISIS INNOVATION, published 2011).
